Test results from US20200055920A1 (published 2020).

How the values were obtained:
Assay in all cases: Biacore SPR; receptor-Fc captured by anti-Fc antibody, ligand injected
BMP2 = BMP2 (UniProt P12643 283-396)
Procedure: (§1) A Biacore™-based binding assay was used to compare ligand binding selectivity of the single-arm BMPRII-Fc heterodimeric complex described above with that of an BMPRII-Fc homodimeric complex. The single-arm BMPRII-Fc and homodimeric BMPRII-Fc were independently captured onto the system using an anti-Fc antibody. Ligands were injected and allowed to flow over the captured receptor protein.

BMP4 = target: T1, BMP4 (UniProt P12644 293-408)
T1 sequence (looked up): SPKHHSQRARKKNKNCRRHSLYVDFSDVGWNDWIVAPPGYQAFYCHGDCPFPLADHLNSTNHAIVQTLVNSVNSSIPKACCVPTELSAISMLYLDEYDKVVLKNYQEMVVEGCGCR
Procedure: as §1

BMP5 = target: T2, BMP5 (UniProt P22003 317-454, limits assumed)
T2 sequence (looked up): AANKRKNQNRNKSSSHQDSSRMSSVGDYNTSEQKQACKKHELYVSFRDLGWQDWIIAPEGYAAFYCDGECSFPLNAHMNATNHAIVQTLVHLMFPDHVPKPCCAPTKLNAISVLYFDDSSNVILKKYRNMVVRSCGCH
Procedure: as §1

BMP6 = target: T3, BMP6 (UniProt P22004 382-513, limits assumed)
T3 sequence (looked up): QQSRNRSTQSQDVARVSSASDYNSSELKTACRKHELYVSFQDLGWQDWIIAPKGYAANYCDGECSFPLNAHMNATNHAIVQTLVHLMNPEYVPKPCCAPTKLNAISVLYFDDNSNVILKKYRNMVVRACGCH
Procedure: as §1

BMP7 = target: T4, BMP7 (UniProt P18075 293-431)
T4 construct: also called osteogenic protein-1; OP-1
T4 sequence (looked up): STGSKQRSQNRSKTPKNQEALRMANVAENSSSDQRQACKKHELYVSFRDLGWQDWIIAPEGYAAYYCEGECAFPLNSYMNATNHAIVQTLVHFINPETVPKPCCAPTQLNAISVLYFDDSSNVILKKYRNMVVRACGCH
Procedure: as §1

BMP10 = target: T5, BMP10 (UniProt O95393 317-424)
T5 sequence (looked up): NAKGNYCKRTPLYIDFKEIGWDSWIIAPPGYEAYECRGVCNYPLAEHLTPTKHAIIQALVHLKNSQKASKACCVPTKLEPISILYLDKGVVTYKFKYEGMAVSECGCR
Procedure: as §1

BMP15 = target: T6, BMP15 (UniProt O95972 268-392)
T6 construct: also called GDF9b
T6 sequence (looked up): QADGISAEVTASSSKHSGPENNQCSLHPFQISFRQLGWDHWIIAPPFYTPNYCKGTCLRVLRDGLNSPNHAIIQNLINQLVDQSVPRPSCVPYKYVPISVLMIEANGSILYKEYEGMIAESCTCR
Procedure: as §1

GDF7 = target: T7, GDF7 (UniProt Q7Z4P5 322-450, limits assumed)
T7 construct: also called BMP12
T7 sequence (looked up): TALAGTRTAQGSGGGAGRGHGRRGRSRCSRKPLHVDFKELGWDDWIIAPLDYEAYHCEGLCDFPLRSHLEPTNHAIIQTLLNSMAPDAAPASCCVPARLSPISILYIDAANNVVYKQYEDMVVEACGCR
Procedure: as §1

TGFβ1 = target: T8, TGFβ1 (UniProt P01137 279-390)
T8 construct: also called TGF-beta1
T8 sequence (P01137 279-390 limits assumed): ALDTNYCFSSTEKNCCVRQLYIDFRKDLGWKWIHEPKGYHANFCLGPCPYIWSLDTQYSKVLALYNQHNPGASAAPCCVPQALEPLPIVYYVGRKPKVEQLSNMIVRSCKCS
Procedure: (§2) Ligands were injected and allowed to flow over the captured receptor protein.

TGFβ2 = target: T9, TGFβ2 (UniProt P61812 303-414)
T9 construct: also called TGF-beta2
T9 sequence (looked up): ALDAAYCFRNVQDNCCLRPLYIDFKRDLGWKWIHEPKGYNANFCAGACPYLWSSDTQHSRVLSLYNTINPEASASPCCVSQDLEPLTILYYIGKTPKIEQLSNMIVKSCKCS
Procedure: as §2

TGFβ3 = target: T10, TGFβ3 (UniProt P10600 301-412)
T10 construct: also called TGF-beta3
T10 sequence (looked up): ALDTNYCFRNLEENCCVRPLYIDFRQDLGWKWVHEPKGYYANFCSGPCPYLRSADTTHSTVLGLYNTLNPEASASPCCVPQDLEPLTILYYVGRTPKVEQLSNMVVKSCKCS
Procedure: as §2

Sequence of BMP2 (P12643 283-396 limits assumed): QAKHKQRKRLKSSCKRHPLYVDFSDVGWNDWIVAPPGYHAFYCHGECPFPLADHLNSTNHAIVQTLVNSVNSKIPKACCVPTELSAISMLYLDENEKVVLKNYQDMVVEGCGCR

B1: single-arm BMPRII-Fc heterodimeric complex (Fc fusion)
chain 1: SQNQERLCAFKDPYQQDLGIGESRISHENGTILCSKGSTCYGLWEKSKGDINLVKQGCWSHIGDPQECHYEECVVTTTPPSIQNGTYRFCCCSTDLCNVNFTENFPPPDTTPLSPPHSFNRDETGGGTHTCPPCPAPELLGGPSVFLFPPKPKDTLMISRTPEVTCVVVDVSHEDPEVKFNWYVDGVEVHNAKTKPREEQYNSTYRVVSVLTVLHQDWLNGKEYKCKVSNKALPAPIEKTISKAKGQPREPQVYTLPPSRKEMTKNQVSLTCLVKGFYPSDIAVEWESNGQPENNYKTTPPVLKSDGSFFLYSKLTVDKSRWQQGNVFSCSVMHEALHNHYTQKSLSLSPGK
chain 2: SNTKVDKRVTGGGTHTCPPCPAPELLGGPSVFLFPPKPKDTLMISRTPEVTCVVVDVSHEDPEVKFNWYVDGVEVHNAKTKPREEQYNSTYRVVSVLTVLHQDWLNGKEYKCKVSNKALPAPIEKTISKAKGQPREPQVYTLPPSREEMTKNQVSLTCLVKGFYPSDIAVEWESNGQPENNYDTTPPVLDSDGSFFLYSDLTVDKSRWQQGNVFSCSVMHEALHNHYTQKSLSLSPGK
notes: also called BMPRII-Fc:Fc heterodimer
binding result (BMP2): no binding | binding result (BMP4): no binding | Kd (BMP5): 36 nM | koff (BMP5): 0.015 s⁻¹ | kon (BMP5): 410000 M⁻¹ s⁻¹ | binding result (BMP6): no binding | binding result (BMP7): no binding | Kd (BMP10): 0.43 nM | koff (BMP10): 0.0091 s⁻¹ | kon (BMP10): 2.1e+07 M⁻¹ s⁻¹ | Kd (BMP15): 0.94 nM | koff (BMP15): 0.067 s⁻¹ | kon (BMP15): 7.1e+07 M⁻¹ s⁻¹ | Kd (GDF7): > 190 nM

B2: single-arm TGFβRII-Fc heterodimeric complex (Fc fusion)
chain 1: TIPPHVQKSVNNDMIVTDNNGAVKFPQLCKFCDVRFSTCDNQKSCMSNCSITSICEKPQEVCVAVWRKNDENITLETVCHDPKLPYHDFILEDAASPKCIMKEKKKPGETFFMCSCSSDECNDNIIFSEEYNTSNPDTGGGTHTCPPCPAPELLGGPSVFLFPPKPKDTLMISRTPEVTCVVVDVSHEDPEVKFNWYVDGVEVHNAKTKPREEQYNSTYRVVSVLTVLHQDWLNGKEYKCKVSNKALPAPIEKTISKAKGQPREPQVYTLPPSRKEMTKNQVSLTCLVKGFYPSDIAVEWESNGQPENNYKTTPPVLKSDGSFFLYSKLTVDKSRWQQGNVFSCSVMHEALHNHYTQKSLSLSPGK
chain 2: SNTKVDKRVTGGGTHTCPPCPAPELLGGPSVFLFPPKPKDTLMISRTPEVTCVVVDVSHEDPEVKFNWYVDGVEVHNAKTKPREEQYNSTYRVVSVLTVLHQDWLNGKEYKCKVSNKALPAPIEKTISKAKGQPREPQVYTLPPSREEMTKNQVSLTCLVKGFYPSDIAVEWESNGQPENNYDTTPPVLDSDGSFFLYSDLTVDKSRWQQGNVFSCSVMHEALHNHYTQKSLSLSPGK
notes: also called TGFβRII-Fc:Fc heterodimer
Kd (TGFβ1): 0.031 nM | koff (TGFβ1): 0.0047 s⁻¹ | kon (TGFβ1): 1.5e+08 M⁻¹ s⁻¹ | Kd (TGFβ2): > 61 nM | Kd (TGFβ3): 0.073 nM | koff (TGFβ3): 0.0099 s⁻¹ | kon (TGFβ3): 1.4e+08 M⁻¹ s⁻¹
